Measurements reported in US6239106A, “Family of protease inhibitors, and other biologic active substances” (Clodica, S.A., priority 1994, dated 2001).
Substitutions are numbered along the chain they refer to. Read-outs that look alike come from different tables or passages of the source. Non-standard residues stand in square brackets, D forms with d. Residues, ends and D or L forms follow the SMILES beside them. No end group written: not given here. Abu = CC[C@H](N)C(=O)O

How the values were obtained:
[1] = molecular target: T1, elastase (Boehringer, 1027891) (Sus scrofa, UniProt P00772); test: Elastase inhibition assay (chromogenic substrate SAAAP, 405 nm); type: biochemical; conditions: for specific (elastase) activity: IU = quantity reducing hydrolysis of SAAAP with 1 μmol/min at pH 8.3 and 25° C.; for inhibition of elastase activity: SAAAP substrate, 25° C., 30 minutes
T1 construct: purchased Boehringer 1027891
Method: 2. Prior lyophilized base material underwent solubility tests after resuspension of the base material in 1) 0.1M Acetic Acid, 2) 50% Acetic Acid and 3) 0.1M Ammoniumbicarbonate and after centrifugation of the various suspensions, supernatants and pellets (after resuspension). Thereafter these were tested on the presence of protein by analytical sequence analysis (Edman degradation with automated sequenator Applied Biosystems, Model 477A) (Edman, 1956; Ilse & Edman, 1963), by applying protocolls, reagentia, chemicals and materials from Applied Biosystems (Warrington, UK and Foster City, Calif., USA) (Hewick, et al, 1981).It was investigated if biologic activity included anti-elastase as the described "auto-antibiotic effect" of A. hydrophila. Therefore, tests on inhibition of elastase activity were executed with dried samples of 20 μl of supernatant and resuspension of pellet of the base material on elastase (Boehringer) and SAAAP (Fluka) as chromogenic substrate, and 0.1 M Tris/HCl pH 8.2 as assay buffer. Based on the results obtained with the different solutions, and the inhibition of elastase, it was decided to use 0.1 M Hac as solution for the lyophilized base material and thereafter as eluens for gel filtration.
The principle of the assay resides in inhibition of elastase (Boehringer, 1027891) activity on the chromogenic substrate SAAAP (Fluka, nr. 85975) as measured at 405 nm spectophotometrically by monitoring release of the p-nitro-aniline group during substrate digestion.
Assay buffer: 0.1M Tris/HCl pH 8.2, 1M NaCl.
Elastase: 40 μg/ml in H2 O.
Substrate: 1.0 mM SAAAP in H2 O.
Glacial Acetic Acid 50%: diluted in H2 O.
Reaction in tubes (Eppendorf), containing 100 μl assay buffer, 50 μl sample elastase inhibitor, 50 μl elastase solution was started by addition of SAAAP (25 μl, 1 mM) and incubated at 25° C. for 30 minutes. Thereafter the reaction was stopped by addition of 25 μl 50% Glacial Acetic Acid. The Absorbance of released p-nitroaniline was read at 405 nm.
International units (IU) are defined as that quantity which reduces the enzymatic hydrolysis of SAAAP with 1 μmol/min at pH 8.3 and 25° C.

[2] = Method: Stability of the molecule was tested
a) by boiling it in water at 100° C. for 30 minutes.
b) by immersion in 50% acetic acid at room temperature during one night, and
c) by immersion in 0.1M HCl in the same conditions.
The samples were consequently assayed with the elastase inhibition assay, as were blancs without inhibitor.

Trypsin [3] = test: Trypsin inhibition assay (BAPNA); type: biochemical; conditions: for trypsin inhibition: BAPNA, 37° C.
Method: An assay was developed for determination of the activity of this Trypsin inhibitor. In analogy with the elastase inhibition assay the preparation of the solution was as follows:
Trypsin, Type II-S soybean trypsin inhibitor (Sigma T 9128) and BAPNA (Sigma B 3279). This was further optimized to: trypsin solution: 120 μg/ml; BAPNA solution 10 mM; Trypsin inhibitor 100 μg/ml and incubation at 37° C. All other details were equal with the elastase inhibition assay.
(§1) Elastase inhibitory activity of Fahsin was measured by inhibition of the release of the p-nitroanilide group from the synthetic substrate N-succinyl-(Ala) 3-p-nitroanilide (SAAAP) (Calbiochem), catalyzed by pancreatic elastase and human neutrophil elastase respectively. Chymotrypsin inhibition activity of Fahsin was measured by the use of the synthetic substrate S-2586 (Kabi Vitrum). […] of Fahsin was measured by the use of the synthetic substrate S-2238 (Kabi Vitrum). pepsin activity of Fahsin was measured by the use of a haemoglobin substrate. Trypsin inhibition activity was determined using the BAPNA assay. Plasmin inhibition activity of Fahsin was related with the Trypsin inhibition activity and measured by the use of the chromogenic substrate D-Val-Leusyl-Lys-pNA (Othodiagnostics).

[4] = molecular target: elastase (Boehringer, 1027891)
plasmin = plasmin (Homo sapiens, UniProt P00747); test: Plasmin inhibition (chromogenic substrate D-Val-Leusyl-Lys-pNA); type: biochemical
Method: as §1

trypsin [5] = molecular target: trypsin
[6] = molecular target: elastase (Boehringer, 1027891); remark: listed apart in the source

T1 sequence (P00772 27-266): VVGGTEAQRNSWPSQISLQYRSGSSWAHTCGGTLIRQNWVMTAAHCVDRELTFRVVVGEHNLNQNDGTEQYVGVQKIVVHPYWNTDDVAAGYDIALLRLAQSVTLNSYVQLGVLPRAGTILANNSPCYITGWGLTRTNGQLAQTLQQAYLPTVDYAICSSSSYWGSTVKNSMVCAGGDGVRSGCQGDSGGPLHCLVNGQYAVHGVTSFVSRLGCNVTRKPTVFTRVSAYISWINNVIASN
Sequence of plasmin (P00747 581-810 limits assumed, species assumed): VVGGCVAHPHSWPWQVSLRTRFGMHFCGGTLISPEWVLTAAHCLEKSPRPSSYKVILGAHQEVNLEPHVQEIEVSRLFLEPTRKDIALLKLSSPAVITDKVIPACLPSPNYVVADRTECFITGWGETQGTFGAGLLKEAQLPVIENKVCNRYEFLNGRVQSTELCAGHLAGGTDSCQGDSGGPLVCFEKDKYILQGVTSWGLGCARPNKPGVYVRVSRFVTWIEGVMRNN
Sequence of plasmin (P00747 97-580 partner limits assumed, species assumed): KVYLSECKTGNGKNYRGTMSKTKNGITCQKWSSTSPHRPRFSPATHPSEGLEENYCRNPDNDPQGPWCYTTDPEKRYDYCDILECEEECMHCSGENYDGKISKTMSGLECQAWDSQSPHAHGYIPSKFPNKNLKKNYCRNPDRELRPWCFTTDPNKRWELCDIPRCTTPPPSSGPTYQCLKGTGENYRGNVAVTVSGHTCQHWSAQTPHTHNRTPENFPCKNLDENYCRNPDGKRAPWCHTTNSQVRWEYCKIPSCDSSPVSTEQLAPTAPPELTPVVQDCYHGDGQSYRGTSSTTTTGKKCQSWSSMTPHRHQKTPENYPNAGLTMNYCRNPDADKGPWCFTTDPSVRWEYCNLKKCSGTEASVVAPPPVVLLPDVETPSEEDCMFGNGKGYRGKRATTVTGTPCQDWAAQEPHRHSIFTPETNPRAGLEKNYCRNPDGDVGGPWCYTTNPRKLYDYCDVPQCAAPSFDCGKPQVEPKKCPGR

DDNCGGKVCSKGQLCHDGHCECTPIRCLIFCPNGFAVDENGCELPCSCKHQ (cysteine pairing not given here) [peak 8]
specific (elastase) activity [1]: 1.7 IU/mg | inhibition of elastase activity [1]: showed inhibition of elastase | stability: elastase inhibiting activity after treatment ([2]; 0.1M HCl at room temperature during one night): no significant decrease of inhibiting activity | stability: elastase inhibiting activity after treatment ([2]; 50% acetic acid at room temperature during one night): no significant decrease of inhibiting activity | stability: elastase inhibiting activity after treatment ([2]; boiling in water at 100° C. for 30 minutes): no significant decrease of inhibiting activity

CC[C@H](NC(=O)[C@H](CCCNC(=N)N)NC(=O)[C@@H](NC(=O)[C@@H]1CCCN1C(=O)[C@@H](NC(C)=O)[C@@H](C)O)[C@@H](C)CC)C(=O)N[C@@H](CCCNC(=N)N)C(=O)N[C@H](C(=O)N[C@@H](Cc1ccc(O)cc1)C(=O)N[C@@H](CC)C(=O)N1CCC[C@H]1C(=O)N[C@@H](CCCCN)C(=O)NCC(=O)N[C@@H](Cc1ccccc1)C(=O)N[C@@H](CCC(=O)O)C(=O)N[C@H](C(=O)N[C@@H](CC(=O)O)C(N)=O)C(C)C)[C@@H](C)CC [Synthetic peptide II, N-Acetyl-TPIRAbuRIYAbuPKGFEVD-amide] (Ac-TPIR[Abu]RIY[Abu]PKGFEVD-NH2)
trypsin inhibition (Trypsin [3]): dose-dependent inhibition of trypsin activity | specific effectivity (trypsin inhibition), factor less than the native molecule (Trypsin [3]; relative to native molecule): ~1,500

CC[C@H](NC(=O)[C@H](CCCNC(=N)N)NC(=O)[C@@H](NC(=O)[C@@H]1CCCN1C(=O)[C@@H](NC(C)=O)[C@@H](C)O)[C@@H](C)CC)C(=O)N[C@@H](CC(C)C)C(=O)N[C@H](C(=O)N[C@@H](Cc1ccccc1)C(=O)N[C@@H](CC)C(=O)N1CCC[C@H]1C(=O)N[C@@H](CC(N)=O)C(=O)NCC(=O)N[C@@H](Cc1ccccc1)C(=O)N[C@@H](C)C(=O)N[C@H](C(=O)N[C@@H](CC(=O)O)C(N)=O)C(C)C)[C@@H](C)CC [Synthetic peptide I, N-Acetyl-TPIRAbuLIFAbuPNGFAVD-amide] (Ac-TPIR[Abu]LIF[Abu]PNGFAVD-NH2)
inhibition of elastase activity [1]: dose-dependent inhibition of elastase activity | specific effectivity (elastase inhibition), factor less than the native molecule ([1]; relative to native molecule): ~5,000

peak 7: single molecule isoform from Limnatis nilotica, 5494.4 D, partial sequence in b92, elastase inhibitor (DDDCGGQVCSKGQLCHDGHCECTPIRCLIYCPNFVDE)
specific (elastase) activity [1]: 1.2 IU/mg | inhibition of elastase activity [1]: showed inhibition of elastase

B1: Synthetic linear peptide N-Acetyl-TPIRAbuLIFAbuPNGFAVD-amide (I) (peptide)
peptide: Ac-TPIR[Abu]LIF[Abu]PNGFAVD-NH2
SMILES: CC[C@H](NC(=O)[C@H](CCCNC(=N)N)NC(=O)[C@@H](NC(=O)[C@@H]1CCCN1C(=O)[C@@H](NC(C)=O)[C@@H](C)O)[C@@H](C)CC)C(=O)N[C@@H](CC(C)C)C(=O)N[C@H](C(=O)N[C@@H](Cc1ccccc1)C(=O)N[C@@H](CC)C(=O)N1CCC[C@H]1C(=O)N[C@@H](CC(N)=O)C(=O)NCC(=O)N[C@@H](Cc1ccccc1)C(=O)N[C@@H](C)C(=O)N[C@H](C(=O)N[C@@H](CC(=O)O)C(N)=O)C(C)C)[C@@H](C)CC
specific effectivity against the native molecule [4]: 5000 factor less

B2: peak 9: isoform found to be a mixture of two molecules, 5385.5 and 5454.1 D, partial sequence in b93 (protein)
chain 1: DDDCGGKVCSKGQLCVDGHCECTPIRCLIYCPNGFAVENGC
chain 2: B2 chain 1 with D2G, D3N, K7Q, H19Q, E21K
specific (elastase) activity [1]: 0.95 IU/mg | inhibition of elastase activity [1]: showed inhibition of elastase

B3: peak 5: 1:1 mixture of 2 peptides, 5377.2 and 5435.5 Dalton, SEQ ID NO:5 or 6, trypsin inhibitor (protein)
chain 1: DDDCGGQVCSKGQLCVDGQCKCTPIRCRIYCPKGFEVDENGCELPCTCKQ
chain 2: B3 chain 1 with D2G, D3N
specific (elastase) activity [1]: less than 0,06 IU/mg | inhibition of elastase activity [1]: did not show anti-elastase activity | trypsin inhibition (Trypsin [3]; listed as Fahsin T 1-2): strongly active | trypsin inhibition (Trypsin [3]; listed as Fraction 5): strong trypsin inhibition | trypsin inhibitory activity compared with the fractions corresponding to peaks 7, 8 and/or 9 (Trypsin [3]; ratio to peaks 7, 8 and/or 9): at least twenty times higher | inhibition of plasmin (plasmin): strongly active

B4: Synthetic linear peptide N-Acetyl-TPIRAbuRIYAbuPKGFEVD-amide (II) (peptide)
peptide: Ac-TPIR[Abu]RIY[Abu]PKGFEVD-NH2
SMILES: CC[C@H](NC(=O)[C@H](CCCNC(=N)N)NC(=O)[C@@H](NC(=O)[C@@H]1CCCN1C(=O)[C@@H](NC(C)=O)[C@@H](C)O)[C@@H](C)CC)C(=O)N[C@@H](CCCNC(=N)N)C(=O)N[C@H](C(=O)N[C@@H](Cc1ccc(O)cc1)C(=O)N[C@@H](CC)C(=O)N1CCC[C@H]1C(=O)N[C@@H](CCCCN)C(=O)NCC(=O)N[C@@H](Cc1ccccc1)C(=O)N[C@@H](CCC(=O)O)C(=O)N[C@H](C(=O)N[C@@H](CC(=O)O)C(N)=O)C(C)C)[C@@H](C)CC
specific effectivity against the native molecule (trypsin [5]): 1500 factor less

DDDCGGQVCSKGQLCHDGHCECTPIRCLIYCPNFVDE [FAHSIN E 1]
specific (elastase) activity, inhibition of SAAAP hydrolysis [6]: 1.2 IU/mg
